Test results from the supplement of paper PMC11246515.
± gives the standard deviation of the averaged measurements.

Assay: total protein half-life in vivo (active degradation + dilution); higher = more stable protein
[1] = E. coli NCM3722 delta-clpP delta-lon delta-hslV, growth: N-lim chemostat, doubling time 6 h
[2] = E. coli NCM3722 delta-clpP, growth: N-lim chemostat, doubling time 6 h
[3] = E. coli NCM3722 delta-hslV, growth: N-lim chemostat, doubling time 6 h
[4] = E. coli NCM3722 delta-lon, growth: N-lim chemostat, doubling time 6 h
[5] = E. coli NCM3722 delta-smpB, growth: N-lim chemostat, doubling time 6 h
[6] = wild type E. coli NCM3722, growth: C-lim chemostat, doubling time 3 h
[7] = wild type E. coli NCM3722, growth: C-lim chemostat, doubling time 6 h
[8] = wild type E. coli NCM3722, growth: C-lim chemostat, doubling time 12 h
[9] = wild type E. coli NCM3722, growth: N-lim chemostat, doubling time 6 h
[10] = wild type E. coli NCM3722, growth: N-lim chemostat, doubling time 12 h
[11] = wild type E. coli NCM3722, growth: P-lim chemostat, doubling time 6 h
[12] = wild type E. coli NCM3722, growth: P-lim chemostat, doubling time 12 h

Sequence | total protein half-life in vivo [1] [h] | total protein half-life in vivo [2] [h] | total protein half-life in vivo [3] [h] | total protein half-life in vivo [4] [h] | total protein half-life in vivo [5] [h] | total protein half-life in vivo [6] [h] | total protein half-life in vivo [7] [h] | total protein half-life in vivo [8] [h] | total protein half-life in vivo [9] [h] | total protein half-life in vivo [10] [h] | total protein half-life in vivo [11] [h] | total protein half-life in vivo [12] [h]
MKKLITANDIREAHARGEQAMSVVLRASIITPEAREVADLLGFTITECDESIPVTASVPASVPADKTESQRIRETIIAQLPEGQFTESLVAQLMEKVMKEKQSLEQGAMQPSFKSVTGKGGIKVIDGSSVKFGRFDGAEPHCVGLTDLVTGDDGSSMAAGFMQWENAFFPWTLNYDEIDMVLEGELHVRHEGQTMIAKAGDVMFIPKGSSIEFGTTSSVKFLYVAWPANWQSL | 5.08 ± 0.37 | 1.62 | 1.44 ± 0.19 | 2.42 ± 0.052 | 1.55 ± 0.36 | 2.12 ± 0.14 | 4.18 ± 0.51 | 5.42 ± 1.1 | 1.84 | 2.19 | 2.44 | 3.93
MKKLKLHGFNNLTKSLSFCIYDICYAKTAEERDGYIAYIDELYNANRLTEILSETCSIIGANILNIARQDYEPQGASVTILVSEEPVDPKLIDKTEHPGPLPETVVAHLDKSHICVHTYPESHPEGGLCTFRADIEVSTCGVISPLKALNYLIHQLESDIVTIDYRVRGFTRDINGMKHFIDHEINSIQNFMSDDMKALYDMVDVNVYQENIFHTKMLLKEFDLKHYMFHTKPEDLTDSERQEITAALWKEMREIYYGRNMPAV [P0A7F6] | – | 4.12 ± 0.42 | 3.29 ± 0.22 | 3.67 ± 0.29 | 3.3 ± 0.2 | 2.8 ± 0.15 | 4.99 | 9.17 ± 0.37 | 2.928 ± 0.015 | 4.17 ± 0.036 | 4.78 ± 0.48 | 7.61 ± 1.4
MKKLLRLFFPLSLRVRFLLATAAVVLVLSLAYGMVALIGYSVSFDKTTFRLLRGESNLFYTLAKWENNKLHVELPENIDKQSPTMTLIYDENGQLLWAQRDVPWLMKMIQPDWLKSNGFHEIEADVNDTSLLLSGDHSIQQQLQEVREDDDDAEMTHSVAVNVYPATSRMPKLTIVVVDTIPVELKSSYMVWSWFIYVLSANLLLVIPLLWVAAWWSLRPIEALAKEVRELEEHNRELLNPATTRELTSLVRNLNRLLKSERERYDKYRTTLTDLTHSLKTPLAVLQSTLRSLRSEKMSVSDAEPVMLEQISRISQQIGYYLHRASMRGGTLLSRELHPVAPLLDNLTSALNKVYQRKGVNISLDISPEISFVGEQNDFVEVMGNVLDNACKYCLEFVEISARQTDEHLYIVVEDDGPGIPLSKREVIFDRGQRVDTLRPGQGVGLAVAREITEQYEGKIVAGESMLGGARMEVIFGRQHSAPKDE | 7.01 ± 1.1 | 6.22 ± 0.32 | 5.85 ± 0.59 | 6.87 ± 1.1 | 6.02 ± 0.93 | 3.26 ± 0.4 | 5.936 ± 0.044 | 10.2 ± 1.2 | 6.046 ± 0.045 | 12.5 ± 0.13 | 6.36 ± 0.37 | 13.5 ± 1.9
MKKMLLATALALLITGCAQQTFTVQNKQTAVAPKETITHHFFVSGIGQKKTVDAAKICGGAENVVKTETQQTFVNGLLGFITLGIYTPLEARVYCSK | 6.1 ± 0.25 | 6.87 | 6.21 | – | 6.05 ± 0.44 | 3.42 ± 0.22 | – | 9.62 ± 2.6 | 6.71 ± 0.74 | 12.4 ± 0.78 | 6.65 ± 0.69 | 14.7 ± 0.54
MKKMMIATLAAASVLLAVANQAXAGATLDAVQKKGFVQCGISDGLPGFSYADADGKFSGIDVDICRGVAAAVFGDDTKVKYTPLTAKERFTALQSGEVDLLSRNTTWTSSRDAGMGMAFTGVTYYDGIGFLTHDKAGLKSAKELDGATVCIQAGTDTELNVADYFKANNMKYTPVTFDRSDESAKALESGRCDTLASDQSQLYALRIKLSNPAEWIVLPEVISKEPLGPVVRRGDDEWFSIVRWTLFAMLNAEEMGINSQNVDEKAANPATPDMAHLLGKEGDYGKDLKLDNKWAYNIIKQVGNYSEIFERNVGSESPLKIKRGQNNLWNNGGIQYAPPVR | 4.74 ± 0.45 | – | – | – | – | – | – | – | – | – | – | –
MKKNQFLKESDVTAESVFFMKRRQVLKALGISATALSLPHAAHADLLSWFKGNDRPPAPAGKALEFSKPAAWQNNLPLTPADKVSGYNNFYEFGLDKADPAANAGSLKTDPWTLKISGEVAKPLTLDHDDLTRRFPLEERIYRMRCVEAWSMVVPWIGFPLHKLLALAEPTSNAKYVAFETIYAPEQMPGQQDRFIGGGLKYPYVEGLRLDEAMHPLTLMTVGVYGKALPPQNGAPVRLIVPWKYGFKGIKSIVSIKLTRERPPTTWNLAAPDEYGFYANVNPYVDHPRWSQATERFIGSGGILDVQRQPTLLFNGYAAQVASLYRGLDLRENF | 4.835 ± 0.0049 | 5.46 ± 0.24 | 5.75 ± 0.17 | 5.98 ± 0.35 | 5.33 ± 0.3 | 2.98 ± 0.034 | 5.58 ± 0.24 | 8.4 ± 0.38 | 5.79 ± 0.18 | 11.9 ± 0.43 | 5.91 ± 0.19 | 11.9 ± 0.57
MKKNRAFLKWAGGKYPLLDDIKRHLPKGECLVEPFVGAGSVFLNTDFSRYILADINSDLISLYNIVKMRTDEYVQAARELFVPETNCAEVYYQFREEFNKSQDPFRRAVLFLYLNRYGYNGLCRYNLRGEFNVPFGRYKKPYFPEAELYHFAEKAQNAFFYCESYADSMARADDASVVYCDPPYAPLSATANFTAYHTNSFTLEQQAHLAEIAEGLVERHIPVLISNHDTMLTREWYQRAKLHVVKVRRSISSNGGTRKKVDELLALYKPGVVSPAKK [P0AEE8] | 5.89 ± 0.51 | 4.15 ± 0.098 | 5.84 ± 0.34 | 4.29 ± 2.2 | 4.51 ± 0.34 | 2.94 ± 0.05 | 5.65 ± 0.72 | 10.2 ± 0.14 | 4.65 ± 0.55 | 10.1 ± 0.92 | 5.39 ± 0.27 | 10.9 ± 0.14
